Measured values from publication PMC10799895 (Nature Communications, 2024).

Biological target: T1, His-sumo-ATG14 (UniProt Q6ZNE5 1-492)
T1 construct: not shown: 6×His, N-terminal, kept; SUMO, N-terminal, kept
Experiment: pull-down; GST pull-down in vitro: GST-tagged protein on GST beads with the His-tagged protein overnight at 4 °C in 20 mM Tris pH 7.4, 300 mM NaCl, 0.1% NP-40, 1 mM PMSF; three washes; western blot
Conditions: both partners purified

T1 sequence (Q6ZNE5 whole entry): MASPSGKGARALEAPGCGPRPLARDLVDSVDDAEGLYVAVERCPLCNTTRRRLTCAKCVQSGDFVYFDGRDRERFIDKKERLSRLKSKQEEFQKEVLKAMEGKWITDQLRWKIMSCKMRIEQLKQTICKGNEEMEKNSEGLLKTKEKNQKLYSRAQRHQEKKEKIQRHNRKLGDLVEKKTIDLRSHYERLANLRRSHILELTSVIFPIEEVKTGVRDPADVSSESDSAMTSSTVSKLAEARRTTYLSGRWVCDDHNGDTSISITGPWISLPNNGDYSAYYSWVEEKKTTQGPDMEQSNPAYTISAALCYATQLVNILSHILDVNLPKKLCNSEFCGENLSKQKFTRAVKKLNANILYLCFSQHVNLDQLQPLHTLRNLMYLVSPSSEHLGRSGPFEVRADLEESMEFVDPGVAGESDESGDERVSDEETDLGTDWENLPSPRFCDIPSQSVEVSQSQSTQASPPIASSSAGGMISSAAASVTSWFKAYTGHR

B1: GST-GABARAP (natural protein, UniProt O95166 1-117, looked up)
chain: MKFVYKEEHPFEKRRSEGEKIRKKYPDRVPVIVEKAPKARIGDLDKKKYLVPSDLTVGQFYFLIRKRIHLRAEDALFFFVNNVIPPTSATMGQLYQEHHEEDFFLYIAYSDESVYGL
notes: also called GST-ATG8s; not shown: GST, N-terminal, kept
- binding result: binds
